According to article PMC3423971 (Structure (London, England : 1993), 2012):
Where a chain is given by its changes, count along the chain named. In names and notes the source's numbering stands. Blank lines part the entries; values can stand above or below the binder they belong to.

Legend:
ubiquitin-AMC = ubiquitin-AMC (UniProt P0CG48 1-76, AMC (ubiquitin-AMC)); assay: cell-based or functional assay
AUC [1] = molecular target: the molecule itself; assay: AUC
AUC [2] = molecular target: the molecule itself; assay: AUC; remark: listed apart in the source
crystal structure = molecular target: the molecule itself; assay: crystal structure

B3: Ubp8 (wild type) (enzyme, yeast)
chain: MSICPHIQQVFQNEKSKDGVLKTCNAARYILNHSVPKEKFLNTMKCGTCHEINSGATFMCLQCGFCGCWNHSHFLSHSKQIGHIFGINSNNGLLFCFKCEDYIGNIDLINDAILAKYWDDVCTKTMVPSMERRDGLSGLINMGSTCFMSSILQCLIHNPYFIRHSMSQIHSNNCKVRSPDKCFSCALDKIVHELYGALNTKQASSSSTSTNRQTGFIYLLTCAWKINQNLAGYSQQDAHEFWQFIINQIHQSYVLDLPNAKEVSRANNKQCECIVHTVFEGSLESSIVCPGCQNNSKTTIDPFLDLSLDIKDKKKLYECLDSFHKKEQLKDFNYHCGECNSTQDAIKQLGIHKLPSVLVLQLKRFEHLLNGSNRKLDDFIEFPTYLNMKNYCSTKEKDKHSENGKVPDIIYELIGIVSHKGTVNEGHYIAFCKISGGQWFKFNDSMVSSISQEEVLKEQAYLLFYTIRQVN
binding result (crystal structure): binds

B5: Ubp8 S144N (enzyme, yeast)
chain: B3 chain with S144N
binding result (crystal structure): binds

B7: DUBm-ΔSgf11-ZnF-Ubp8^S149N: Ubp8 S149N, Sgf11(1-72), Sus1, Sgf73(1-96) (complex, yeast)
chain 1: B3 chain with S149N
chain 2: MTEETITIDSISNGILNNLLTTLIQDIVARETTQQQLLKTRYPDLRSYYFDPNGSLDINGLQKQQESSQYIH
chain 3: MTMDTAQLKSQIQQYLVESGNYELISNELKARLLQEGWVDKVKDLTKSEMNINESTNFTQILSTVEPKALEMVSDSTRETVLKQIREFLEEIVDTQ
chain 4: MRSGDAEIKGIKPKVIEEYSLSQGSGPSNDSWKSLMSSAKDTPLQYDHMNRESLKKYFNPNAQLIEDPLDKPIQYRVCEKCGKPLALTAIVDHLEN
KM of Ub-AMC cleavage (steady-state kinetics, 30°C) (ubiquitin-AMC): 11 µM

Continued, in another order:

KM of Ub-AMC cleavage (steady-state kinetics, 30°C) (ubiquitin-AMC): 24 µM
B1: wild-type SAGA deubiquitinating module (DUBm): Ubp8, Sgf11, Sus1, Sgf73(1-96) (complex, yeast)
chain 1: B3 chain
chain 2: MTEETITIDSISNGILNNLLTTLIQDIVARETTQQQLLKTRYPDLRSYYFDPNGSLDINGLQKQQESSQYIHCENCGRDVSANRLAAHLQRCLSRGARR
chain 3: B7 chain 3
chain 4: B7 chain 4

KM of Ub-AMC cleavage (steady-state kinetics, 30°C) (ubiquitin-AMC): 17 µM
B2: DUBm-ΔSgf11-ZnF-Ubp8^S144N: Ubp8 S144N, Sgf11(1-72), Sus1, Sgf73(1-96) (complex, yeast)
chain 1: B3 chain with S144N
chain 2: B7 chain 2
chain 3: B7 chain 3
chain 4: B7 chain 4
Kd (AUC [1]): 28 µM | stoichiometry N (AUC [2]): 2

KM of Ub-AMC cleavage (steady-state kinetics, 30°C) (ubiquitin-AMC): 19 µM
B4: DUBm-ΔSgf11-ZnF-Ubp8^WT: Ubp8, Sgf11(1-72), Sus1, Sgf73(1-96) (complex, yeast)
chain 1: B3 chain
chain 2: B7 chain 2
chain 3: B7 chain 3
chain 4: B7 chain 4
Kd (AUC [1]): ~17 µM | stoichiometry N (AUC [2]): 2

KM of Ub-AMC cleavage (steady-state kinetics, 30°C) (ubiquitin-AMC): 13 µM
B6: DUBm-ΔSgf11-ZnF-Ubp8^S144N/S149N: Ubp8 S144N S149N, Sgf11(1-72), Sus1, Sgf73(1-96) (complex, yeast)
chain 1: B3 chain with S144N, S149N
chain 2: B7 chain 2
chain 3: B7 chain 3
chain 4: B7 chain 4
